This note sets out measurements from US20080311130A1 (IMMUNE DISEASE INSTITUTE, published 2008).

Substitutions are numbered along the chain they refer to. Names and notes keep the numbering of the source.

Assay [1] deals with ICAM-1-Fcγ (ICAM-1 residues of 1-480 fused to the Fc of human IgG, R&D Systems) (human) (UniProt P05362). Kind of assay: flow cytometry on yeast-displayed I domain, ICAM-1-Fcγ 10 µg/ml. In general terms: In flow cytometry, cells or beads pass a laser one at a time.
For assay [2], the target named is T1, ICAM-1-Fcγ (ICAM-1 residues of 1-480 fused to the Fc of human IgG, R&D Systems) (human, UniProt P05362 28-480).
T1 construct: range 1-480; Bought (R&D Systems); also called ICAM-1-Fcγ chimera; not shown: Fc of human IgG
T1 sequence (P05362 28-480 limits assumed, form in doubt): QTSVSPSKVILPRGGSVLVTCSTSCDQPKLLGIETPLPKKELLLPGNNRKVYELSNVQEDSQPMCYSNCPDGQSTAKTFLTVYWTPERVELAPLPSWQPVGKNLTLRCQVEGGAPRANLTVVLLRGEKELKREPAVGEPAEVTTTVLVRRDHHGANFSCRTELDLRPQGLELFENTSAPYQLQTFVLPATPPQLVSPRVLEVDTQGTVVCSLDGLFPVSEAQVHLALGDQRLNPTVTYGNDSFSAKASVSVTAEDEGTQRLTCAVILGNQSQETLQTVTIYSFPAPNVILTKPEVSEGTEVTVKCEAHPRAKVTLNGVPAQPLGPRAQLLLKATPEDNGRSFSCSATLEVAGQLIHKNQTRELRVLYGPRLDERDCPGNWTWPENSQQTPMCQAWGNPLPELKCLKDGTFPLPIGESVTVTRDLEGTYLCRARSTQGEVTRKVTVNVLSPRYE
Described as above. The protocol:
Cells that were cultured only in SD-CAA or further induced in SG-CAA were harvested, washed with 100 μl of labeling buffer (PBS, 0.5% BSA, 10 mM MgCl₂), and then incubated with ligands at 10 μg/ml in 50 μl of the labeling buffer for 20 min with shaking at 30° C. in a 96-well V-bottom plate. Ligands used in this study were anti-c-myc antibody 9E10 (Santa Cruz Biotechnology, CA) and anti-hemagglutinin antibody 12CA5 (Roche Applied Science), αL I domain-specific antibodies TS1/22 and MEM83³², and ICAM-1-Fcγ (ICAM-1 residues of 1-480 fused to the Fc of human IgG, R&D Systems). After incubation with the primary ligands, cells were washed once in 100 μl of the labeling buffer and incubated with the fluorescence-conjugated secondary antibodies at 5 μg/ml in 50 μl of the labeling buffer for 20 min at 4° C. Finally, cells were washed once in 100 μl and suspended in 100 μl of the labeling buffer for flow cytometry (FACScan, BD Biosciences).
A total of twenty-five yeast colonies were picked from SD-CAA plates from the libraries selected with ICAM-1-Fcγ. These clones were tested for binding of ICAM-1-Fcγ, and sequenced (Table 1). Of these, 15 had unique sequences and were designated as m1 to m15, and all bound ICAM-1 better than wild-type (Table 1). Five clones contained single mutations, and the remainder contained 2-5 mutations each (Table 1). From the clones containing multiple mutations, one to three residues were selected and independently tested as a single substitution (designated with a, b, or c suffix) or independently isolated from the ratchet residue library (see below).

Assay [3] addresses T1, ICAM-1-Fcγ (ICAM-1 residues of 1-480 …). Kind of assay: SPR (Biacore); wild-type value from a previous study. For orientation: In SPR one partner is held on a chip, and binding of the other changes the refractive index at the surface.
For assay [4] the target is unchanged. Put plainly: SPR (Biacore 3000), I domain injected over ICAM-1-Fcγ-coupled CM5 chip, 10 mM MgCl2. The protocol:
(§1) Mutant I domains (F265S, F292A, F292G, F265S/F292G, and HA) with residues of Asn-129 to Tyr-307 were expressed in Escherichia coli BL21 (DE3) (Novagen), refolded, and purified as described previously⁶. ICAM-1-Fcγ-coupled or mock-coupled CM5 sensor chip as control was prepared using the amine coupling kit (BIAcore, Piscataway, N.J.), as described previously³³. Surface plasmon resonance was measured using Biacore 3000. I domains were injected over the chip in 20 mM Tris HCl, pH 8.0, 150 mM NaCl, 10 mM MgCl₂, at a flow rate of 10 μl/min at room temperature.
Several of the most activating mutants were expressed in Escherichia coli and refolded in order to measure the kinetics of binding to ICAM-1 by surface plasmon resonance (FIG. 2). Data are shown in Table 2, and for comparison are shown kinetics measured for the wild-type and disulfide-bonded IA and HA mutants in a previous study⁶, and for the same disulfide-bonded HA mutant in the current study.
(§2) The values shown in the table are mean ± SD from three independent measurements. The parameters of kₒₙ, koff, and Kd were calculated by fitting the 1:1 Langmuir binding model to the Biacore sensogram. The values were from the previous studies ⁶.

Assay [5] has the same target. Kind of assay: SPR (Biacore). The protocol:
Sensograms show the binding of the I domain mutants (F292A, F265S, F292G, and F265S/F292G) to ICAM-1-Fcγ-coated sensor chip. In all sensograms, the signals from the control surface, as described in Materials and Methods, were subtracted. I domain mutants were injected in a series of concentrations starting from 100 μM for F292A and 1 μM for F292G, F265S, and F265S/F292G, and the subsequent concentrations were by two-fold serial dilutions.
as §1, §2

For assay [6] the target is unchanged. Put plainly: cell-based or functional assay.

Chain of ICAM-1-Fcγ (ICAM-1 residues of 1-480 fused to the Fc of human IgG, R&D Systems) (human) (P05362 28-480 limits assumed): as the sequence (P05362 28-480 limits assumed, form in doubt) above

B1: αL I domain clone m10b (E293G), yeast-displayed (receptor, not shown: large carriers; small tags and cut ends)
chain: NVDLVFLFDGSMSLQPDEFQKILDFMKDVMKKLSNTSYQFAAVQFSTSYKTEFDFSDYVKWKDPDALLKHVKHMLLLTNTFGAINYVATEVFREELGARPDATKVLIIITDGEATDSGNIDAAKDIIRYIIGIGKHFQTKESQETLHKFASKPASEFVKILDTFGKLKDLFTELQKKIYVIEGTSKQDLT
As to B1, the ICAM-1 (% ASFI of HA) in assay [1] was 4 % ASFI of HA.

B2: αL I domain clone f1 (L289A), yeast-displayed (receptor, not shown: large carriers; small tags and cut ends)
chain: B1 chain with L161A, G165E
Turning to B2, the ICAM-1 (% ASFI of HA) in assay [1] was 1 % ASFI of HA.

B3: αL I domain clone m12 (I150T, G246V, F299L, I309T), yeast-displayed (receptor)
chain: B1 chain with I22T, G118V, G165E, F171L, I181T
notes: yeast surface display; not shown: Aga2, linker and hemagglutinin tag of pCTCON; c-myc tag
B3: the “ICAM-1 (% ASFI of HA)” value in assay [2] was 27 % ASFI of HA.

B4: αL I domain clone m8 (F292S, P281E), yeast-displayed (receptor)
chain: B1 chain with P153E, F164S, G165E
notes: as for B3
Take B4: in assay [2], the “ICAM-1 (% ASFI of HA)” value was 54 % ASFI of HA.

B5: αL I domain clone m15 (F277L, I288T), yeast-displayed (receptor)
chain: B1 chain with F149L, I160T, G165E
notes: as for B3
Take B5: the “ICAM-1 (% ASFI of HA)” value in assay [2] is 30 % ASFI of HA.

B6: αL I domain clone m14 (I288N), yeast-displayed (receptor)
chain: B1 chain with I160N, G165E
notes: as for B3
With B6, the “ICAM-1 (% ASFI of HA)” value in assay [2] is 14 % ASFI of HA.

B7: αL I domain clone m9 (F292S, Y177R, L204Q), yeast-displayed (receptor)
chain: B1 chain with Y49R, L76Q, F164S, G165E
notes: as for B3
As to B7, in assay [2], the “ICAM-1 (% ASFI of HA)” value is 28 % ASFI of HA.

B8: αL I domain clone m13 (F265S), yeast-displayed (receptor)
chain: B1 chain with F137S, G165E
notes: as for B3
Consider B8, for which the “ICAM-1 (% ASFI of HA)” value in assay [2] is 123 % ASFI of HA.

B9: αL I domain clone m6 (F209Y, L289P), yeast-displayed (receptor)
chain: B1 chain with F81Y, L161P, G165E
notes: as for B3
As to B9, the “ICAM-1 (% ASFI of HA)” value in assay [2] was 33 % ASFI of HA.

B10: αL I domain clone m15a (F277L), yeast-displayed (receptor)
chain: B1 chain with F149L, G165E
notes: as for B3
For the molecule B10, the “ICAM-1 (% ASFI of HA)” value in assay [2] was 110 % ASFI of HA.

B11: αL I domain clone m10 (F265L, E293G, K294E, K296E, V308I), yeast-displayed (receptor)
chain: B1 chain with F137L, K166E, K168E, V180I
notes: as for B3
In the case of B11, in assay [2], the “ICAM-1 (% ASFI of HA)” value was 16 % ASFI of HA.

B12: αL I domain clone m11 (L295P, Q303R), yeast-displayed (receptor)
chain: B1 chain with G165E, L167P, Q175R
notes: as for B3
Turning to B12, the “ICAM-1 (% ASFI of HA)” value in assay [2] is 107 % ASFI of HA.

B13: αL I domain clone m12c (I309T), yeast-displayed (receptor)
chain: B1 chain with G165E, I181T
notes: as for B3
On to B13, for which the “ICAM-1 (% ASFI of HA)” value in assay [2] was 17 % ASFI of HA.

B14: soluble αL I domain mutant F292G, Asn-129 to Tyr-307 (receptor)
chain: NVDLVFLFDGSMSLQPDEFQKILDFMKDVMKKLSNTSYQFAAVQFSTSYKTEFDFSDYVKWKDPDALLKHVKHMLLLTNTFGAINYVATEVFREELGARPDATKVLIIITDGEATDSGNIDAAKDIIRYIIGIGKHFQTKESQETLHKFASKPASEFVKILDTGEKLKDLFTELQKKIY
A word on the Kd: it is the constant that tells how readily two partners part at equilibrium. A high value points to weaker binding. For orientation: koff means the first-order rate constant of dissociation. Low readings indicate a long-lived complex, high ones a short-lived complex. The term kon denotes the second-order rate constant of association. A higher kon goes with faster complex formation. B14: in assay [3], the “fold decrease in dissociation-rate (against wild type)” value worked out at 1000 fold and the “fold increase in affinity (against wild type)” value worked out at 10000 fold. In assay [4], this molecule returned a Kd of 119 nM, a koff of 0.0019 s⁻¹ and a kon of 16000 M⁻¹ s⁻¹. In assay [5], the “fold higher affinity compared to the F292A mutant” value was 170 fold and the “fold slower dissociation rate than the F292A mutant” value amounted to 100 fold.

B15: soluble αL I domain double mutant F265S/F292G, Asn-129 to Tyr-307 (receptor)
chain: B14 chain with F137S
For the molecule B15, the “fold increase in affinity compared to the wild-type I domain” value in assay [3] was 200000 fold. In assay [4], this molecule registered a Kd of 6 nM, a koff of 0.00015 s⁻¹ and a kon of 25000 M⁻¹ s⁻¹. In addition, in assay [5], the “fold decrease in dissociation rate compared to the F265S and F292G single mutants” value is 10 fold; the “fold higher binding affinity than the HA mutant” value stood at 20 fold; the “fold higher kon than the single mutants” value was found to be 2 fold; the “fold slower dissociation rate than the HA I domain” value was roughly 100 fold. Besides, in assay [6], the “IC50 in blocking the adhesion of PMA activated lymphocytes to ICAM-1 coated surfaces” value is 350 nM; the “potency relative to the HA I domain in lymphocyte adhesion to ICAM-1, transmigration and homotypic aggregation” value amounted to 10 fold.

B16: soluble αL I domain mutant F265S, Asn-129 to Tyr-307 (receptor)
chain: B14 chain with F137S, G164F
Regarding B16, in assay [3], the “fold decrease in dissociation-rate (against wild type)” value worked out at 1000 fold and the “fold increase in affinity (against wild type)” value came to 10000 fold. In assay [4], this molecule came in with a Kd of 145 nM, an off-rate constant (koff) of 0.0017 s⁻¹ and a kon of 11800 M⁻¹ s⁻¹. In assay [5], the “fold slower dissociation rate than the F292A mutant” value came out at 100 fold.

B17: soluble αL I domain mutant F292A, Asn-129 to Tyr-307 (receptor)
chain: B14 chain with G164A
In the case of B17, in assay [3], the “fold increase in affinity (against wild type)” value worked out at 75 fold. Also, in assay [4], the Kd stood at 20000 nM, the koff came out at 0.19 s⁻¹ and the kon is 9500 M⁻¹ s⁻¹.
